For the assay, the target named is T1, 重组人CD73蛋白 (human) (UniProt P21589).
T1 sequence (looked up): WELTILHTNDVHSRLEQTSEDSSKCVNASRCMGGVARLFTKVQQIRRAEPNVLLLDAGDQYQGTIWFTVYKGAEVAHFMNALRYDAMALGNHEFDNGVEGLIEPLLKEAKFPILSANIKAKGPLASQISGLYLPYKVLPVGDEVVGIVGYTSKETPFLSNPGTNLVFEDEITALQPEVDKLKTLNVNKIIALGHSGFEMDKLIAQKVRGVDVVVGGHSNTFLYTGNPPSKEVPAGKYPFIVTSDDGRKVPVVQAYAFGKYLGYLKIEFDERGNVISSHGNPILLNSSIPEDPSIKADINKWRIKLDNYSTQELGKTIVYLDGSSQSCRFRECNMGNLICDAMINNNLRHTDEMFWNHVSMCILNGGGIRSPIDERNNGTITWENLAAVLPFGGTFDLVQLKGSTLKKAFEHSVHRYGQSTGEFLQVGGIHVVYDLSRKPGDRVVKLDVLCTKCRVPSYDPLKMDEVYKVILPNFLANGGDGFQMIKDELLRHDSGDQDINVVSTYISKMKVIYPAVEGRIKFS
In words: ELISA, plate coated with 1 μg/mL recombinant human CD73, anti-human IgG-HRP detection. Background: In an ELISA, binding on a coated surface is turned into a signal by an enzyme label.

The text below walks through data of patent CN114456267A.

B1: 抗CD73人源化单克隆抗体5A4 (antibody, part only; not given: Light chain variable region, part only)
VH: SICFEGKPDMNQRDKEDHMRVFMNSWDDWYDVKLWHCIDFERAHRPQHYPIMAQVQLVQSGAEVKKPGASVKVSCKASGYSFTDYNMYWVRQAPGQGLEWMGYIDPYNGDASYAQKFQGRVTMTRDTSTSTVYMELSSLRSEDTAVYYCAKTDYWGQGTTLTVSSCLAKLPCGSHTWVWWQEMIQNAPWCVQPTHDHWAPAGWNHGCCILAHAENIQGAQWFAY
Turning to B1, the 亲和力 (affinity) was found to be 8.3e-13 mol/L.
